Measured values reported in US20190358242A1, “COMPOSITIONS, KITS, AND METHODS TO INDUCE ACQUIRED CYTORESISTANCE USING STRESS PROTEIN INDUCERS” (FRED HUTCHINSON CANCER RESEARCH CENTER, priority 2017, published 2019).
Where “and” joins values, the source holds several entries; their conditions need not be identical. Equal values may be shown once.

Key:
haptoglobin = test: Haptoglobin protein expression after SQ injection of myoglobin with or without PEG; format: in vivo, mice; conditions: 4 hour time point after SQ injection
Experimental: Myoglobin+PEG: To a stock solution of 20 mg/ml Mgb in PBS was added 100 mg/ml of PEG-6000; […]. This was administered as a subcutaneous injection in the dorsal neck (250 ul total injection). For combined Mgb/PEG+SnPP, SnPP was added to the above in a concentration of 3 mg/ml.

HO-1 mRNA = test: Renal HO-1 mRNA (RT-PCR, HO-1/GAPDH) after IV myoglobin, SnPP or both; format: in vivo, CD-1 mice
Description: (§1) The Glycerol Model of AKI. This is a widely used model of rhabdomyolysis-induced AKI that has been employed worldwide for 50 years. The model was used to test whether prophylactic interventions confer protection against AKI. Basically, the protocol is as follows: Male CD-1 mice (35-45 grams), obtained from Charles River Laboratories, Wilmington, Mass. were studied. Mice were maintained under standard vivarium conditions and generally housed for 1-3 weeks prior to study. The mice were placed in a cylindrical restraining cage, and then were given a tail vein injection of the test substances (see below) or test substance vehicle. The mice were then returned to their cages. Eighteen hours (hrs) later, the mice were briefly anesthetized by isoflurane inhalation, and given an intramuscular injection of hypertonic (50%) glycerol in a dose of 9 ml/Kg body weight. The dose is divided in two, with half injected into the muscle of each of the hind limbs. The mice were then returned to their cages. Eighteen hrs later, the mice were deeply anesthetized with pentobarbital (50-100 mg/Kg), the abdominal cavity was opened through a midline abdominal incision, a blood sample was obtained from the abdominal vena cava and the kidneys were resected. A kidney cross section was obtained and fixed in formalin for subsequent histologic analysis. The terminal blood samples were analyzed for BUN and creatinine, using commercially available assay kits. The remaining kidney tissue was subjected to cortical dissection, and the cortical tissues were then extracted for protein and RNA. The protein samples were saved for analysis of HO-1 levels, and the RNA samples were subjected to RT-PCR to quantify HO-1 mRNA as well as levels of other stress gene mRNAs (e.g. NGAL, haptoglobin, hemopexin, hepicidin).
(§2) Myoglobin+SnPP: To 5 mg of dry myoglobin was added 0.9 ml of PBS+0.1 ml of a stock SnPP solution (50 umole/ml). The resulting final concentrations were 5 mg/ml myoglobin+5 umoles/ml of SnPP. The tail vein was injected with 200 ul of this solution, which equals 1 mg myoglobin+1 umole SnPP. […]
[…] To confirm that the myoglobin+SnPP has a synergistic effect in inducing HO-1 mRNA and HO-1 protein levels, each of the above combinations have been administered alone via tail vein injection. […] For additional information regarding methods, see Zager et al., Am J Physiol Renal Physiol. 2014 Jul. 30. Pii.

[1] = set-up: species or system mice; conditions: mouse, in vivo, iv
HO-1 protein [2] = test: Renal cortex HO-1 protein (ELISA) after IV myoglobin, SnPP or both; format: in vivo, CD-1 mice; conditions: 4 hr IV; 1 mg myoglobin, 1 μmole SnPP
Description: as §1, §2
Four hr post myoglobin vs myoglobin+SnPP vs SnPP alone experiments. To confirm that the myoglobin+SnPP has a synergistic effect in inducing HO-1 mRNA and HO-1 protein levels, each of the above combinations have been administered alone via tail vein injection. Four hrs later, the mice were sacrificed as noted above and the kidneys were harvested for assessment of HO-1 mRNA and protein levels. For additional information regarding methods, see Zager et al., Am J Physiol Renal Physiol. 2014 Jul. 30. Pii.
Given that it is just 4 hrs post injection, the mRNA increases are greater than the protein increases as protein synthesis must follow the mRNA induction-requiring more time.

HK-2 cells = test: HK-2 cell injury by MTT assay; format: cell-based; conditions: 10 mg/mL, 18 hr incubation
Experimental: HK-2 cells (a proximal tubule cell line derived from normal human kidney) were incubated in keratinocyte serum free medium either under normal (control) conditions or in the presence of 10 mg/mL horse skeletal muscle myoglobin or nitrited myoglobin (produced by equimolar Na nitrite addition to 10 mg/ml myoglobin). After 18 hr incubations, the severity of cell injury (% cell death) was assessed by MTT assay. Myoglobin induced 40% cell death (40% decrease in MTT cell uptake), compared to control incubated cells. Nitrite binding to myoglobin reduced cell death by 75%. Thus, nitrite binding is able to reduce myoglobin's cytotoxic effects.

HO-1 protein [3] = test: Renal cortex HO-1 protein (ELISA) after IV myoglobin, SnPP or both; format: in vivo, CD-1 mice; conditions: overnight (roughly 18 hrs) post IV; 1 mg myoglobin, 1 μmole SnPP
[4] = overnight (roughly 18 hrs) post IV, 1 mg myoglobin, 1 μmole SnPP

B1: myoglobin (protein, UniProt P68082 2-154, looked up)
Myoglobin: GLSDGEWQQVLNVWGKVEADIAGHGQEVLIRLFTGHPETLEKFDKFKHLKTEAEMKASEDLKKHGTVVLTALGGILKKKGHHEAELKPLAQSHATKHKIPIKYLEFISDAIIHVLHSKHPGDFGADAQGAMTKALELFRNDIAAKYKELGFQG
notes: Lyophilized horse skeletal muscle (myoglobin) (Sigma Chemicals), a heme protein
- Haptoglobin protein expression (haptoglobin): 32.7 ± 6.3 ng/mg ng/mg protein
- HO-1/GAPDH mRNA, Average (HO-1 mRNA; kidney, 4 hr post IV injection): 3.93
- HO-1/GAPDH mRNA, individual mice (HO-1 mRNA; kidney, 4 hr post IV injection): 7.78 and 2.93 and 2.58 and 2.41
- HO-1/GAPDH mRNA, Average (HO-1 mRNA; [4]): 0.58
- HO-1/GAPDH mRNA, individual subjects (HO-1 mRNA; [4]): 0.71 and 0.53 and 0.51
- Plasma LDH, Average [1]: 4.47 Absorbance U LDH/ml
- Cortex HO-1 protein (ELISA), Average (HO-1 protein [2]): 45.4 ng HO-1/mg protein
- Cortex HO-1 protein (ELISA), individual mice (HO-1 protein [2]): 40.7 ng HO-1/mg protein and 40.2 ng HO-1/mg protein and 64.7 ng HO-1/mg protein and 36.0 ng HO-1/mg protein
- Cell death (decrease in MTT cell uptake) vs control incubated cells (HK-2 cells): 40%
- HO-1 protein induction, Average (HO-1 protein [3]): 36.7
- HO-1 protein induction, individual subjects (HO-1 protein [3]): 50.6 and 34.9 and 24.6
